Patent US20240117011A1

Molecular target: full-length SARS-CoV-2 spike, WA-1 / Wuhan-1 (S wt) (SARS-CoV-2) (UniProt P0DTC2)
Assay: cell-based or functional assay

LY-CoV555 (antibody)
pseudotyped virus neutralization IC50: 0.0071 µg/mL | pseudotyped virus neutralization IC80: 0.0357 µg/mL
